Assay results from the supplement of paper PMC10598134.
± gives the standard deviation.

Experiment: collision cross section of modified peptide (TIMS, N2, iRT-aligned); higher = larger / more extended gas-phase ion
In short: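 Collision cross section was derived from the Mason-Schamp equation. Each value averages 1–3 technical replicates of the most abundant feature per charge state, measured on a timsTOF Pro/HT in dda-PASEF mode (nitrogen, ~2.4 mbar) after a 120-min nanoflow C18 gradient at 60 °C. Synthetic peptide pools (~100 fmol/µL in 2% acetonitrile/0.1% formic acid, iRT standard spiked 1:40) were identified with MaxQuant, and 1/K0 was calibrated with three reference ions and aligned run-wise to the median iRT peptide deviation.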

[1] = charge state: 3, modification: Glutarylation
[2] = charge state: 3, modification: GlyGly (K)
[3] = charge state: 2, modification: Methyl (K)
[4] = charge state: 3, modification: Methyl (K)
[5] = charge state: 2, modification: Succinyl
[6] = charge state: 3, modification: Succinyl
[7] = charge state: 3, modification: hydroxyisobutyryl
[8] = charge state: 2, modification: Nitro (Y)
[9] = charge state: 3, modification: Nitro (Y)
[10] = charge state: 2, modification: Phospho (Y)
[11] = charge state: 3, modification: Citrullination (R)
[12] = charge state: 3, modification: Methyl (R)

GTVPDDAVEALADSLGKK [_GTVPDDAVEALADSLGK(Gluratylation)K_]
collision cross section (charge state: 2, modification: Glutarylation): 452.53 ± 1.2 Å² | collision cross section [1]: 538.57 ± 1.8 Å²

GTVPDDAVEALADSLGKK [_GTVPDDAVEALADSLGK(GlyGly (K))K_]
collision cross section (charge state: 2, modification: GlyGly (K)): 485.77 ± 1.3 Å² | collision cross section [2]: 534.99 ± 1.1 Å²

GTVPDDAVEALADSLGKK [_GTVPDDAVEALADSLGK(Malonyl)K_]
collision cross section (charge state: 2, modification: Malonyl): 454.67 ± 1.4 Å²

GTVPDDAVEALADSLGKK [_GTVPDDAVEALADSLGK(Methyl (K))K_]
collision cross section [3]: 482.51 ± 3.5 Å² | collision cross section [4]: 524.02 ± 2.6 Å²

GTVPDDAVEALADSLGKK [_GTVPDDAVEALADSLGK(Succinyl)K_]
collision cross section [5]: 459.53 ± 1.1 Å² | collision cross section [6]: 536.91 ± 2.2 Å²

GTVPDDAVEALADSLGKK [_GTVPDDAVEALADSLGK(Trimethyl (K))K_]
collision cross section (charge state: 2, modification: Trimethyl (K)): 486.05 ± 4.8 Å² | collision cross section (charge state: 3, modification: Trimethyl (K)): 534.79 ± 2.4 Å²

GTVPDDAVEALADSLGKK [_GTVPDDAVEALADSLGK(hydroxyisobutyryl)K_]
collision cross section (charge state: 2, modification: hydroxyisobutyryl): 460.24 ± 0.81 Å² | collision cross section [7]: 537.74 ± 2.1 Å²

GVEAVGSYAENQR [_GVEAVGSY(Nitro (Y))AENQR_]
collision cross section [8]: 377.43 ± 0.17 Å² | collision cross section [9]: 473.04 ± 0.83 Å²

GVEAVGSYAENQR [_GVEAVGSY(Phospho (Y))AENQR_]
collision cross section [10]: 388.79 ± 0.77 Å² | collision cross section (charge state: 3, modification: Phospho (Y)): 472.71 ± 0.98 Å²

GVPRGVHLGSQGLQR [_GVPR(Citrullination (R))GVHLGSQGLQR_]
collision cross section (charge state: 2, modification: Citrullination (R)): 439.96 Å² | collision cross section [11]: 482.18 ± 0.41 Å²

GVPRGVHLGSQGLQR [_GVPR(Methyl (R))GVHLGSQGLQR_]
collision cross section [12]: 492.74 ± 2.1 Å²

GVQYLNEIK [_GVQY(Nitro (Y))LNEIK_]
collision cross section [8]: 353.34 ± 0.19 Å²

GVQYLNEIK [_GVQY(Phospho (Y))LNEIK_]
collision cross section [10]: 357.38 ± 0.065 Å²

GYDVIAQAQSGTGK [_GY(Nitro (Y))DVIAQAQSGTGK_]
collision cross section [8]: 387.17 ± 0.17 Å²

GYDVIAQAQSGTGK [_GY(Phospho (Y))DVIAQAQSGTGK_]
collision cross section [10]: 388.75 ± 0.77 Å²

GYGVIFANGNR [_GY(Nitro (Y))GVIFANGNR_]
collision cross section [8]: 360.58 ± 1.2 Å²

GYGVIFANGNR [_GY(Phospho (Y))GVIFANGNR_]
collision cross section [10]: 364.42 ± 0.064 Å²

GYLGPEQLPDCLK [_GY(Nitro (Y))LGPEQLPDCLK_]
collision cross section [8]: 396.71 ± 0.18 Å²

GYLGPEQLPDCLK [_GY(Phospho (Y))LGPEQLPDCLK_]
collision cross section [10]: 400.34 ± 0.08 Å²

HELQANCYEEVKDR [_HELQANCYEEVK(Acetyl (K))DR_]
collision cross section (charge state: 2, modification: Acetyl (K)): 446.57 Å² | collision cross section (charge state: 3, modification: Acetyl (K)): 495.42 ± 1.4 Å²

HELQANCYEEVKDR [_HELQANCYEEVK(Biotin)DR_]
collision cross section (charge state: 3, modification: Biotin): 512.53 ± 1.6 Å²

HELQANCYEEVKDR [_HELQANCYEEVK(Butyryl)DR_]
collision cross section (charge state: 2, modification: Butyryl): 452.47 ± 0.51 Å² | collision cross section (charge state: 3, modification: Butyryl): 502.99 ± 3.8 Å²

HELQANCYEEVKDR [_HELQANCYEEVK(Formyl)DR_]
collision cross section (charge state: 3, modification: Formyl): 490.46 Å²

HELQANCYEEVKDR [_HELQANCYEEVK(Gluratylation)DR_]
collision cross section [1]: 487.76 ± 1.7 Å²

HELQANCYEEVKDR [_HELQANCYEEVK(GlyGly (K))DR_]
collision cross section [2]: 529.53 ± 1.6 Å²

HELQANCYEEVKDR [_HELQANCYEEVK(Malonyl)DR_]
collision cross section (charge state: 3, modification: Malonyl): 477.83 ± 2.4 Å²

HELQANCYEEVKDR [_HELQANCYEEVK(Methyl (K))DR_]
collision cross section [3]: 444.71 Å² | collision cross section [4]: 527.11 ± 0.72 Å²

HELQANCYEEVKDR [_HELQANCYEEVK(Succinyl)DR_]
collision cross section [5]: 444.39 Å² | collision cross section [6]: 483.15 ± 3.9 Å²

HELQANCYEEVKDR [_HELQANCYEEVK(hydroxyisobutyryl)DR_]
collision cross section [7]: 504.98 ± 2.9 Å²

HFGPVPPSQGRGR [_HFGPVPPSQGR(Citrullination (R))GR_]
collision cross section [11]: 445.8 Å²

HFGPVPPSQGRGR [_HFGPVPPSQGR(Methyl (R))GR_]
collision cross section [12]: 491.26 ± 0.38 Å²

HGGSGGRGVSVSSAR [_HGGSGGR(Citrullination (R))GVSVSSAR_]
collision cross section [11]: 485.51 ± 3.7 Å²

HGGSGGRGVSVSSAR [_HGGSGGR(Methyl (R))GVSVSSAR_]
collision cross section [12]: 477.29 ± 1.5 Å²

HGVYNPNK [_HGVY(Nitro (Y))NPNK_]
collision cross section [8]: 338.11 ± 3.3 Å²

HGVYNPNK [_HGVY(Phospho (Y))NPNK_]
collision cross section [10]: 346.37 ± 0.75 Å²

HHAAYVNNLNVTEEK [_HHAAY(Nitro (Y))VNNLNVTEEK_]
collision cross section [8]: 438.46 Å² | collision cross section [9]: 499.02 ± 3.6 Å²
